# Results published in the supplement of paper PMC12855868.
# B1: library; numbered along this chain (parent)
# chain: MAAAGGARLLRAASAVLGGPAGRWLHHAGSRAGSSGLLRNRGPGGSAEASRSLSVSARARSSSEDKITVHFINRDGETLTTKGKVGDSLLDVVVENNLDIDGFGACEGTLACSTCHLIFEDHIYEKLDAITDEENDMLDLAYGLTDRSRLGCQICLTKSMDNMTVRVPETVADARQSIDVGKTS
# Variants of: B1
# Assay: scaled log2 fold change in cell abundance, elesclomol vs control (0 = silent mean, 1 = nonsense mean) (scaled log2 ratio); higher = higher viability under elesclomol (loss of FDX1 cuproptosis function)
# Conditions: glucose 10 mM
# [1] = with ABC1 FDX1 KO, elesclomol 5 nM, 14 days
# [2] = with HEK293T FDX1 KO, elesclomol 40 nM, 11 days
# 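Note: variant abundance is its share of total variant reads in each endpoint sample, from next-generation sequencing of the integrated ORF PCR-amplified out of genomic DNA.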
Variant,scaled log2 fold change [1],scaled log2 fold change [2]
MAAAGGARLLRAASAVLGGPAGRWLHHAGSRAGSSGLLRNRGPGGSAEASRSLSVSARARSSSEDKITVHFINRDGETLTTKGKVGDSLLDVVVENNLDIDGFGACEGTLACSTCHLIFEDHIYLKLDAITDEENDMLDLAYGLTDRSRLGCQICLTKSMDNMTVRVPETVADARQSIDVGKTS,0.17,0.357
MAAAGGARLLRAASAVLGGPAGRWLHHAGSRAGSSGLLRNRGPGGSAEASRSLSVSARARSSSEDKITVHFINRDGETLTTKGKVGDSLLDVVVENNLDIDGFGACEGTLACSTCHLIFEDHIYMKLDAITDEENDMLDLAYGLTDRSRLGCQICLTKSMDNMTVRVPETVADARQSIDVGKTS,0.0258,–
MAAAGGARLLRAASAVLGGPAGRWLHHAGSRAGSSGLLRNRGPGGSAEASRSLSVSARARSSSEDKITVHFINRDGETLTTKGKVGDSLLDVVVENNLDIDGFGACEGTLACSTCHLIFEDHIYNKLDAITDEENDMLDLAYGLTDRSRLGCQICLTKSMDNMTVRVPETVADARQSIDVGKTS,-0.0561,-0.574
MAAAGGARLLRAASAVLGGPAGRWLHHAGSRAGSSGLLRNRGPGGSAEASRSLSVSARARSSSEDKITVHFINRDGETLTTKGKVGDSLLDVVVENNLDIDGFGACEGTLACSTCHLIFEDHIYPKLDAITDEENDMLDLAYGLTDRSRLGCQICLTKSMDNMTVRVPETVADARQSIDVGKTS,-0.165,0.0466
MAAAGGARLLRAASAVLGGPAGRWLHHAGSRAGSSGLLRNRGPGGSAEASRSLSVSARARSSSEDKITVHFINRDGETLTTKGKVGDSLLDVVVENNLDIDGFGACEGTLACSTCHLIFEDHIYQKLDAITDEENDMLDLAYGLTDRSRLGCQICLTKSMDNMTVRVPETVADARQSIDVGKTS,-0.176,-0.00485
MAAAGGARLLRAASAVLGGPAGRWLHHAGSRAGSSGLLRNRGPGGSAEASRSLSVSARARSSSEDKITVHFINRDGETLTTKGKVGDSLLDVVVENNLDIDGFGACEGTLACSTCHLIFEDHIYRKLDAITDEENDMLDLAYGLTDRSRLGCQICLTKSMDNMTVRVPETVADARQSIDVGKTS,0.109,-0.189
MAAAGGARLLRAASAVLGGPAGRWLHHAGSRAGSSGLLRNRGPGGSAEASRSLSVSARARSSSEDKITVHFINRDGETLTTKGKVGDSLLDVVVENNLDIDGFGACEGTLACSTCHLIFEDHIYSKLDAITDEENDMLDLAYGLTDRSRLGCQICLTKSMDNMTVRVPETVADARQSIDVGKTS,0.239,–
MAAAGGARLLRAASAVLGGPAGRWLHHAGSRAGSSGLLRNRGPGGSAEASRSLSVSARARSSSEDKITVHFINRDGETLTTKGKVGDSLLDVVVENNLDIDGFGACEGTLACSTCHLIFEDHIYTKLDAITDEENDMLDLAYGLTDRSRLGCQICLTKSMDNMTVRVPETVADARQSIDVGKTS,-0.0928,0.0298
MAAAGGARLLRAASAVLGGPAGRWLHHAGSRAGSSGLLRNRGPGGSAEASRSLSVSARARSSSEDKITVHFINRDGETLTTKGKVGDSLLDVVVENNLDIDGFGACEGTLACSTCHLIFEDHIYVKLDAITDEENDMLDLAYGLTDRSRLGCQICLTKSMDNMTVRVPETVADARQSIDVGKTS,0.114,-0.317
MAAAGGARLLRAASAVLGGPAGRWLHHAGSRAGSSGLLRNRGPGGSAEASRSLSVSARARSSSEDKITVHFINRDGETLTTKGKVGDSLLDVVVENNLDIDGFGACEGTLACSTCHLIFEDHIYWKLDAITDEENDMLDLAYGLTDRSRLGCQICLTKSMDNMTVRVPETVADARQSIDVGKTS,-0.76,-0.135
MAAAGGARLLRAASAVLGGPAGRWLHHAGSRAGSSGLLRNRGPGGSAEASRSLSVSARARSSSEDKITVHFINRDGETLTTKGKVGDSLLDVVVENNLDIDGFGACEGTLACSTCHLIFEDHIYYKLDAITDEENDMLDLAYGLTDRSRLGCQICLTKSMDNMTVRVPETVADARQSIDVGKTS,-0.278,-0.0436
MAAAGGARLLRAASAVLGGPAGRWLHHAGSRAGSSGLLRNRGPGGSAEASRSLSVSARARSSSEDKITVHFINRDGETLTTKGKVGDSLLDVVVENNLDIDGFGACEGTLACSTCHLIFEDHIYEALDAITDEENDMLDLAYGLTDRSRLGCQICLTKSMDNMTVRVPETVADARQSIDVGKTS,-0.285,0.163
MAAAGGARLLRAASAVLGGPAGRWLHHAGSRAGSSGLLRNRGPGGSAEASRSLSVSARARSSSEDKITVHFINRDGETLTTKGKVGDSLLDVVVENNLDIDGFGACEGTLACSTCHLIFEDHIYECLDAITDEENDMLDLAYGLTDRSRLGCQICLTKSMDNMTVRVPETVADARQSIDVGKTS,-0.0261,-0.165
MAAAGGARLLRAASAVLGGPAGRWLHHAGSRAGSSGLLRNRGPGGSAEASRSLSVSARARSSSEDKITVHFINRDGETLTTKGKVGDSLLDVVVENNLDIDGFGACEGTLACSTCHLIFEDHIYEDLDAITDEENDMLDLAYGLTDRSRLGCQICLTKSMDNMTVRVPETVADARQSIDVGKTS,0.116,0.255
MAAAGGARLLRAASAVLGGPAGRWLHHAGSRAGSSGLLRNRGPGGSAEASRSLSVSARARSSSEDKITVHFINRDGETLTTKGKVGDSLLDVVVENNLDIDGFGACEGTLACSTCHLIFEDHIYEELDAITDEENDMLDLAYGLTDRSRLGCQICLTKSMDNMTVRVPETVADARQSIDVGKTS,-0.285,0.945
MAAAGGARLLRAASAVLGGPAGRWLHHAGSRAGSSGLLRNRGPGGSAEASRSLSVSARARSSSEDKITVHFINRDGETLTTKGKVGDSLLDVVVENNLDIDGFGACEGTLACSTCHLIFEDHIYEFLDAITDEENDMLDLAYGLTDRSRLGCQICLTKSMDNMTVRVPETVADARQSIDVGKTS,-0.00916,0.517
MAAAGGARLLRAASAVLGGPAGRWLHHAGSRAGSSGLLRNRGPGGSAEASRSLSVSARARSSSEDKITVHFINRDGETLTTKGKVGDSLLDVVVENNLDIDGFGACEGTLACSTCHLIFEDHIYEGLDAITDEENDMLDLAYGLTDRSRLGCQICLTKSMDNMTVRVPETVADARQSIDVGKTS,0.426,0.372
